Test results reported in patent US20210238253A1 (GUANGDONG ZHAOTAI INVIVO BIOMEDICINE, published 2021).

T1: hCD19-his (human CD19 recombinant protein, Pro20-Lys291, His tag at C-terminus) (human, UniProt P15391 20-291)
T1 construct: range 20-291; also called human CD19-His
T1 sequence (looked up): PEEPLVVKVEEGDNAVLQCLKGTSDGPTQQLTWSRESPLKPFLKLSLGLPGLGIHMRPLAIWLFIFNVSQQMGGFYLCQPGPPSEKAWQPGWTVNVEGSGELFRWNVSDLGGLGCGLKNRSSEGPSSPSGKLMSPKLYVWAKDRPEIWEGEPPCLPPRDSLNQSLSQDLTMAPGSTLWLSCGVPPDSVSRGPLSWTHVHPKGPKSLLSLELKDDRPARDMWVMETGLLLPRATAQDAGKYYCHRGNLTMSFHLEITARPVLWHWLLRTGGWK

T2: CD19 expressed by Nalm6 cells (UniProt P15391 20-556)
T2 chain: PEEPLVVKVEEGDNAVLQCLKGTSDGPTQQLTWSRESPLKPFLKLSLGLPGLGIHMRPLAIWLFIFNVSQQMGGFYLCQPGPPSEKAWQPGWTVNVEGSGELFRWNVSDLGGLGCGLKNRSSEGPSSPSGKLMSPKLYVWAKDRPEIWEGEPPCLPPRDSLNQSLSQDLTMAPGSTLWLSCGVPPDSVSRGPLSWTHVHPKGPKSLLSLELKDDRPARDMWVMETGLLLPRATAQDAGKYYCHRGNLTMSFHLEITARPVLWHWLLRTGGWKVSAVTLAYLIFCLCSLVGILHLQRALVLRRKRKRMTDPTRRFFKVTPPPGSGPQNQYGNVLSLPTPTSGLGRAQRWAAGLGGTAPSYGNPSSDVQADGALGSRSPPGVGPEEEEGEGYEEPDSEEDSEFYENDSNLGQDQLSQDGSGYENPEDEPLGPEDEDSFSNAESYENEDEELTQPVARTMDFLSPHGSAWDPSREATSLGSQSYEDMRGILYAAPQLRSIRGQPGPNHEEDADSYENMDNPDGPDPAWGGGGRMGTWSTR

T3: CD19 expressed by Nalm6 cells (UniProt P15391 20-556, limits assumed)
T3 construct: whole, on cells; Endogenous CD19 on tumor cell lines; also called Nalm6/GL; CD19 antigen on RAJI-GL and NALM6-GL tumor cells
T3 sequence (looked up): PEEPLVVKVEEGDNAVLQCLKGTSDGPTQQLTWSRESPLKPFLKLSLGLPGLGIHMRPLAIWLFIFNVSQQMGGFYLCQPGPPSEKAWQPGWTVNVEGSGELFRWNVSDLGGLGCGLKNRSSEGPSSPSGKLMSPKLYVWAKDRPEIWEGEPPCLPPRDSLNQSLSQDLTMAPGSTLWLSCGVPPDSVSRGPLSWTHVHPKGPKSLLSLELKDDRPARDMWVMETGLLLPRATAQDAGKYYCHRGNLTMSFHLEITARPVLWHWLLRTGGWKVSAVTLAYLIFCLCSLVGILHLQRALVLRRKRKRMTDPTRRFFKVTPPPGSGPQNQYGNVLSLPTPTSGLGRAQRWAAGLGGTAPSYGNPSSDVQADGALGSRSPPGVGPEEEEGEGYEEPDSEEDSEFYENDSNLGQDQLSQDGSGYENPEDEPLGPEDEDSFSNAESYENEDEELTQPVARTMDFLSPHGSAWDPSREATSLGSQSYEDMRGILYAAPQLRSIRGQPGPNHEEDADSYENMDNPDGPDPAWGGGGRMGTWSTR

T4: hLAG3 (human, UniProt P18627 23-450, limits assumed)
T4 construct: Coated antigen of the specificity ELISA
T4 sequence (looked up): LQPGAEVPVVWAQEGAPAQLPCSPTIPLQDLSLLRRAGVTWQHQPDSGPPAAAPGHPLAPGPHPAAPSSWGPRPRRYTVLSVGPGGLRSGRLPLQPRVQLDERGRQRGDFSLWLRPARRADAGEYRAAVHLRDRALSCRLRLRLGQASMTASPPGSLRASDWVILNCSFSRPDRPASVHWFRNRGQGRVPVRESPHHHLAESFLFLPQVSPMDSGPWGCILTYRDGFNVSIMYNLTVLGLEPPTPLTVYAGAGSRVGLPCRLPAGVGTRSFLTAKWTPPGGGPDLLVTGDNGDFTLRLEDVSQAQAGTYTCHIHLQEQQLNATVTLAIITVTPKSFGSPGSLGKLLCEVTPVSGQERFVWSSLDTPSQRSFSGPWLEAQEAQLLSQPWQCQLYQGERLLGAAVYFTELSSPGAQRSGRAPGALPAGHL

T5: hVISTA-his (human, UniProt Q9H7M9 33-194)
T5 construct: Coated antigen of the specificity ELISA
T5 sequence (looked up): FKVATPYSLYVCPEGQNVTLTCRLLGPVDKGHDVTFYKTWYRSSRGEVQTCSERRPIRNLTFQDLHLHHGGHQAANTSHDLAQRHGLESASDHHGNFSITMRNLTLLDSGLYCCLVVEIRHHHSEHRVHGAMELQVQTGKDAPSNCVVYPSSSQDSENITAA

B1: 52F9 fully humanized antibody (recombinant, human IgG1 / kappa) (antibody, V domains shown)
VH: QVQLVESGGGVVQAGRSLRLSCAASGFTFSNYGIHWVRQAPGKGLEWVGVIWHDGSIKNYADFVKGRFTISRDNSEDTLYLQMNSLRAEDTAVYYCAREQGNYYGWGSYKAFDIWGQGTMVTVSS
VL: DIQLTQSPSFLSVFVGDRVTITCRASQGISNYLAWYQQKPGKAPELLLYATSTLQSGVPSRLSGSGSGTEFTLTLSSLQPEDFATYYCQQVYSFPYTFGQGTKLEIK
B2: 31A2 (hybridoma antibody) (antibody, V domains shown)
VH: QVQLVESGGGVVQPGRSLRLSCAASGFTFSRHGMHWVRQAPGKGLEWVAVIWYDGSNKYYVDSVKGRFTISRDNSKNTLDLQMNSLRAEDTAVYYCARRSITWDGAFDIWGQGTMVTVSS
VL: DIQMTQSPSTLSASVGDRVTISCRASQSISSWLAWYQQKPGKAPKLLIYKASSLESGVPSRFSGSGSGTEFTLTISSLQPDDFATYYCQQYNSAYTFGQGTKLEIK
notes: hybridoma mAb from H2L2 mouse (human variable, rat constant regions)
B3: 17B6 fully humanized antibody (recombinant, human IgG1 / kappa) (antibody, V domains shown)
VH: QVQLVESGGGVVQPGRSLRLSCEASGFTFSRHGMHWVRQAPGKGLEWVAVIFYDGSQNYYADSVRGRFTISRDNSKNTLSLQMDSLRAEDTAVYYCARRSITWNGGFDIWGQGTMVTVSP
VL: DIQMTQSPSTLSASVGDRVTITCRASQSISSWLAWYQQKPGKAPKLLIYKASSLESGVPSRFSGSGSGTEFTLAISSLQPDDFATYYCQQYNRFYTFGQGTKLEIK
B4: 31A2 fully humanized antibody (recombinant, human IgG1 / kappa) (antibody, V domains shown)
VH: QVQLVESGGGVVQPGRSLRLSCAASGFTFSRHGMHWVRQAPGKGLEWVAVIWYDGSNKYYVDSVKGRFTISRDNSKNTLDLQMNSLRAEDTAVYYCARRSITWDGAFDIWGQGTMVTVSS
VL: DIQMTQSPSTLSASVGDRVTISCRASQSISSWLAWYQQKPGKAPKLLIYKASSLESGVPSRFSGSGSGTEFTLTISSLQPDDFATYYCQQYNSAYTFGQGTKLEIK
B5: 15F2 (hybridoma antibody) (antibody, V domains shown)
VH: QVQLVESGGGVVQPGRSLRLSCAASGFTFSRHGMHWVRQAPGKGLEWVAVIWYDGSNKYYVDSVKGRFTISRDNSKNTLDLQMNSLRAEDTAVYYCARRSITWDGAFDIWGQGTMVTVSS
VL: DIQMTQSPSTLSASVGDRVTVTCRASQSIRSWLAWYQQKPGKAPKLLIYKASSLESGVPSRFSGSGSGTEFTLTISSLQPDDFATYYCQQYNSAYTFGQGTKLEIK
notes: as for B2
B6: 15F2 fully humanized antibody (recombinant, human IgG1 / kappa) (antibody, V domains shown)
VH: QVQLVESGGGVVQPGRSLRLSCAASGFTFSRHGMHWVRQAPGKGLEWVAVIWYDGSNKYYVDSVKGRFTISRDNSKNTLDLQMNSLRAEDTAVYYCARRSITWDGAFDIWGQGTMVTVSS
VL: DIQMTQSPSTLSASVGDRVTVTCRASQSIRSWLAWYQQKPGKAPKLLIYKASSLESGVPSRFSGSGSGTEFTLTISSLQPDDFATYYCQQYNSAYTFGQGTKLEIK
B7: 19D6 (antibody, V domains shown)
VH: QVQLVESGGGVVQPGRSLRLSCAASGFTFSRHGMHWVRQAPGKGLEWVAVIWYDGSNKYYVDSVKGRFTISRDNSKNTLDLQMNSLRAEDTAVYYCARRSITWDGAFDIWGQGTMVTVSS
VL: DIQMTQSPSTLSASVGDRVTVTCRASQSIRSWLAWYQQKPGKAPKLLIYKASSLESGVPSRFSGSGSGTEFTLTISSLQPDDFATYYCQQYNSAYTFGQGTKLEIK
notes: as for B2
B8: 11H8 fully humanized antibody (recombinant, human IgG1 / kappa) (antibody, V domains shown)
VH: QVQLVESGGGVVQPGRSLRLSCAASGFTFSRHGMHWVRQAPGKGLEWVAVIWYDGSNQYYVDSVKGRFTISRDNSKNTLDLQMNSLRVEDTAVYYCARRSITWYGGFDIWGQGTMVTVSS
VL: DIQMTQSPSTLSASVGDRVTITCRASQSISSWLAWYQQKPGKAPKLLIYKASSLESGVPPRFSGSGSGTEFTLTISSLQPDDFATYYCQQYNSAYTFGQGTKLEIK
B9: 27F11 fully humanized antibody (recombinant, human IgG1 / kappa) (antibody, V domains shown)
VH: QVQLVESGGGVVQPGRSLRLSCAASGFTFSRHGMHWVRQAPGKGLEWVAVIYYDGSNKYYVDSVKGRFTISRDNSKNTLDLQMNSLRAEDTAVYYCARRSITWNGAFDIWGQGTMVTVSS
VL: DIQMTQSPSTLSASVGDRVTISCRASQSISSWLAWYQQKPGKAPKLLIYKASSLESGVPSRFSGSGSGTEFTLTISSLQPDDFATYYCQQYNSAYTFGQGTKLEIK
B10: 11H8 (hybridoma antibody) (antibody, V domains shown)
VH: QVQLVESGGGVVQPGRSLRLSCAASGFTFSRHGMHWVRQAPGKGLEWVAVIWYDGSNQYYVDSVKGRFTISRDNSKNTLDLQMNSLRVEDTAVYYCARRSITWYGGFDIWGQGTMVTVSS
VL: DIQMTQSPSTLSASVGDRVTITCRASQSISSWLAWYQQKPGKAPKLLIYKASSLESGVPPRFSGSGSGTEFTLTISSLQPDDFATYYCQQYNSAYTFGQGTKLEIK
notes: as for B2

Columns and labels:
[1] = molecular target: T1, hCD19-his (human CD19 recombinant …); assay: ELISA, coated hCD19-His, fully humanized antibody titrated
Experimental: According to the method described in Example 4, 0.5 μg/ml of hCD19-His was spread and incubated. The fully humanized antibodies were serially diluted and added to bind the incubated antigen. The binding signal of each antibody could be detected with HRP-labeled goat […] Fc antibody. The results are shown in FIG. 5 and Table 5, as follows: […]

[2] = molecular target: T2, CD19 expressed by Nalm6 cells; assay: flow cytometry
[3] = molecular target: T3, CD19 expressed by Nalm6 cells; assay: flow cytometry on Nalm6 cells
Experimental: The CD19-expressing tumor cells Nalm6 in logarithmic growth phase were collected and resuspended in PBS at a cell density of 10⁵/well, 100 μl/well. The diluted CD19 antibodies were added into the well and incubated at 4° C. for 1 hour. The cells were washed three times with flow cytometry wash buffer. Anti-rat IgG-Alexa Fluor 647 (Abcam, Cat #ab150163) was added and incubated at 4° C. for 1 hour. The cells were washed three times with flow cytometry wash buffer. The samples were analyzed by flow cytometry. The results are shown in FIG. 3 and Table 4, as follows: […]

[4] = molecular target: T1, hCD19-his (human CD19 recombinant …); assay: ELISA, coated hCD19-His
Experimental: The antibodies were screened by ELISA according to Example 2. Briefly, […] of hCD19-His (ACRO) were spread and incubated. The purified antibodies were serially diluted to bind the incubated antigen. The binding signal of each antibody could be detected with HRP-labeled goat anti-rat Fc antibody.
Graphpad Prism software was used to calculate the fitting data.

h41BB = molecular target: T6, h41BB (human, UniProt Q07011 24-186); assay: ELISA, coated antigen 0.5 µg/ml
T6 construct: Coated antigen of the specificity ELISA
Experimental: (§1) According to the method described in Example 4, 0.5 μg/ml of hCD19-His, hVISTA-his, hPD-L1, hCD40, h41BB and hLAG3 were spread and incubated respectively, and 2μg/ml of purified antibodies were added to bind the incubated antigen. The binding signal of each antibody could be detected with HRP-labeled goat anti-rat Fc antibody.

hLAG3 = molecular target: T4, hLAG3; assay: ELISA, coated antigen 0.5 µg/ml
Experimental: as §1

hVISTA-his = molecular target: T5, hVISTA-his; assay: ELISA, coated antigen 0.5 µg/ml
Experimental: as §1

hCD40 = molecular target: T7, hCD40 (human, UniProt P25942 21-193); assay: ELISA, coated antigen 0.5 µg/ml
T7 construct: Coated antigen of the specificity ELISA
Experimental: as §1

hPD-L1 = molecular target: T8, hPD-L1 (human, UniProt Q9NZQ7 19-238, limits assumed); assay: ELISA, coated antigen 0.5 µg/ml
T8 construct: Coated antigen of the specificity ELISA
Experimental: as §1

T8 sequence (Q9NZQ7 19-238 limits assumed): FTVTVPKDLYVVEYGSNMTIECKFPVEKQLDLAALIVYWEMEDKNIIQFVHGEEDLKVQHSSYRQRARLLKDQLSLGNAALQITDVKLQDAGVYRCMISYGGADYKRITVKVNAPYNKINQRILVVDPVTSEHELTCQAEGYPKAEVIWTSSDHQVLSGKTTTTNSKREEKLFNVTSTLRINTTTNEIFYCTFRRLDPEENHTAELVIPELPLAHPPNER
T7 sequence (P25942 21-193 limits assumed): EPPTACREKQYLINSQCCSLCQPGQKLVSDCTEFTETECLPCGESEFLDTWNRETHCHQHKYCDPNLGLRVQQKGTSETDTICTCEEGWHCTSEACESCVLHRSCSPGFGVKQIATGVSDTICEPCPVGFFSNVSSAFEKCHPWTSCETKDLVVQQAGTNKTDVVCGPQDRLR

Binder	EC50 [1]	EC50 [2]	Maximum mean fluorescence intensity (30 µg/ml) [3]	EC50 [4]	binding result (h41BB)	binding result (hLAG3)	binding result (hVISTA-his)	binding result (hCD40)	binding result (hPD-L1)
B1	0.00792 µg/mL	–	–	–	–	–	–	–	–
B2	–	22.9 µg/mL	24700	0.0249 µg/mL	no binding (tested: 2 µg/ml)	no binding (tested: 2 µg/ml)	no binding (tested: 2 µg/ml)	no binding (tested: 2 µg/ml)	no binding (tested: 2 µg/ml)
B3	0.00452 µg/mL	–	–	–	–	–	–	–	–
B4	0.00446 µg/mL	–	–	–	–	–	–	–	–
B5	–	24.6 µg/mL	21700	0.0287 µg/mL	no binding (tested: 2 µg/ml)	no binding (tested: 2 µg/ml)	no binding (tested: 2 µg/ml)	no binding (tested: 2 µg/ml)	no binding (tested: 2 µg/ml)
B6	0.00378 µg/mL	–	–	–	–	–	–	–	–
B7	–	–	10400	0.0737 µg/mL	–	–	–	–	–
B8	0.00263 µg/mL	–	–	–	–	–	–	–	–
B9	0.004 µg/mL	–	–	–	–	–	–	–	–
B10	–	11.8 µg/mL	23300	0.0301 µg/mL	no binding (tested: 2 µg/ml)	no binding (tested: 2 µg/ml)	no binding (tested: 2 µg/ml)	no binding (tested: 2 µg/ml)	no binding (tested: 2 µg/ml)
